Experimental findings from paper PMC11633186 are described below.

In this assay the target is VisAG5 (S. gordonii VisA region containing its 7 G5 domains, residues 138-698, C-terminal His-tag) (Streptococcus gordonii DL1). The experiment in a line: SDS-PAGE and western blot against the His-tag (denaturing); purified VisAG5 in Laemmli buffer with 2.5% betamercaptoethanol; size of the band. (In general: In western blotting, separated proteins are transferred to a membrane and probed.)

For “VisAG5 (S. gordonii VisA region containing its 7 G5 domains, residues 138-698, C-terminal His-tag) (domain or fragment)”, the stoichiometry N (commonly a count of units in the complex or per binding partner) was found to be 2.
